In patent US9745384B2, “Peptides useful for modulating histone demethylase function” (The Brigham and Women's Hospital, Inc., priority 2012, dated 2017):

B1: linker region of NPAC: NPAC linker region, residues 152-252 or 152-268 (protein)
chain: SERGSKSPLKRAQEQSPRKRGRPPKDEKDLTIPESSTVKGMMAGPMAAFKWQPTASEPVKDADPHFHHFLLSQTEKPAVCYQAITKKLKICEEETGSTSIQ
modifications: left off: a dimerising Fc or GST
B2: full-length NPAC F217A protein: full-length NPAC protein with F217A mutation (protein, UniProt Q49A26 1-553, looked up, variant F217A)
chain: MAAVSLRLGDLVWGKLGRYPPWPGKIVNPPKDLKKPRGKKCFFVKFFGTEDHAWIKVEQLKPYHAHKEEMIKINKGKRFQQAVDAVEEFLRRAKGKDQTSSHNSSDDKNRRNSSEERSRPNSGDEKRKLSLSEGKVKKNMGEGKKRVSSGSSERGSKSPLKRAQEQSPRKRGRPPKDEKDLTIPESSTVKGMMAGPMAAFKWQPTASEPVKDADPHAHHFLLSQTEKPAVCYQAITKKLKICEEETGSTSIQAADSTAVNGSITPTDKKIGFLGLGLMGSGIVSNLLKMGHTVTVWNRTAEKCDLFIQEGARLGRTPAEVVSTCDITFACVSDPKAAKDLVLGPSGVLQGIRPGKCYVDMSTVDADTVTELAQVIVSRGGRFLEAPVSGNQQLSNDGMLVILAAGDRGLYEDCSSCFQAMGKTSFFLGEVGNAAKMMLIVNMVQGSFMATIAEGLTLAQVTGQSQQTLLDILNQGQLASIFLDQKCQNILQGNFKPDFYLKYIQKDLRLAIALGDAVNHPTPMAAAANEVYKRAKALDQSDNDMSAVYRAYIH
modifications: full-length
notes: full-length NPAC protein with F217A mutation

What was measured:
Format in all cases: biochemical
LSD2 [1] = target: T1, LSD2 (Homo sapiens, UniProt Q8NB78); assay: H3K4me2 peptide demethylation assay (MALDI-TOF); settings: H3K4me2 peptide residues 1-21
T1 construct: 0.15 μM or 1.2 μM purified LSD2 (residues 51-822); His6 (cleaved yes); made in house; host or cells: Sf9 insect cells (baculovirus)
T1 sequence (Q8NB78 51-822): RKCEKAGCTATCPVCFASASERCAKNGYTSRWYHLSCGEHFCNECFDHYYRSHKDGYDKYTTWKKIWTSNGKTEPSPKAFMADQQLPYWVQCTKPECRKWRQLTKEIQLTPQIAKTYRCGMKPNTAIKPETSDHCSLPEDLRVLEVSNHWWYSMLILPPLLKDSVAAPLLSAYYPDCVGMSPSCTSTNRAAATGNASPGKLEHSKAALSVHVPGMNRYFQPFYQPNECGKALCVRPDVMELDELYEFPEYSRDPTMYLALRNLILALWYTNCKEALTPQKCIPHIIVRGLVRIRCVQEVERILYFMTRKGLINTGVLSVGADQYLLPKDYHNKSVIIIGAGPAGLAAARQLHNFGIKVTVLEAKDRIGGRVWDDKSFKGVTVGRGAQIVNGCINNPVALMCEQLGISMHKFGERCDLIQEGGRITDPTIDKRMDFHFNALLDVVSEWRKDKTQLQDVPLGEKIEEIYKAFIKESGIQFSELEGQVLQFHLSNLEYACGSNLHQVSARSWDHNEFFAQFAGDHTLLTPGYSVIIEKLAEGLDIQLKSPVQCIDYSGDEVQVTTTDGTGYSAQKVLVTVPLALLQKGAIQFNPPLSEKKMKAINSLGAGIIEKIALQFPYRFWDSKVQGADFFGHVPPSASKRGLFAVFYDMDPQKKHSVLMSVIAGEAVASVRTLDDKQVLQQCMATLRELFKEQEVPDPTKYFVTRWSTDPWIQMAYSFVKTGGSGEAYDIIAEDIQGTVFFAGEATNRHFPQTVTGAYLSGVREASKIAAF
Experimental: FIGS. 12A-12F depict analysis of LSD2 demethylation activity and mutational analysis. […] Demethylation products were analyzed by MALDI-TOF mass spectrometry. 0.15 μM LSD2 can efficiently demethylate the longer H3K4me2 peptide (1-21), but has no detectable activity on the shorter histone peptide (1-15), demethylation of which requires high concentration (1.2 μM) of LSD2. […] It indicates the importance of histone residue 16-21 to LSD2 enzymatic activity and NPAC cofactor activity, supporting our model that NPAC assists enzyme-substrate interactions by creating a new binding site for H3 L20 in the LSD2-NPAC complex. FIG. 12C depicts LSD2 demethylation and NPAC cofactor activity on longer H3K4me2 peptide (1-44). 2 μg H3K4me2 peptide (1-44) were incubated with 0.8 μg GST-LSD2 (1-822) and 2 μg wild-type or F217A full-length GST-NPAC proteins in 100 μl demethylation buffer (50 mM Tris-HCl pH 8.1, 1 mM NAD^+, 0.1 Unit formaldehyde dehydrogenase) at 30° C. for 2 hours. LSD2 alone can efficiently demethylate di-methyl H3K4 of the long peptides, converting large majority of the substrate to H3K4me1. Wild-type NPAC protein can efficiently stimulate LSD2 demethylation, producing unmethylated H3K4. F217A mutation impairs NPAC cofactor activity as expected, showing little stimulatory effect if any. To compare demethylation efficiency, 1.2 μg bio-H3K4me2 peptide (H3 residue 1-21, equal molar ratio to 2 ug H3K4me2 1-44 peptide in above assays) was demethylated by LSD2 under identical conditions (bottom panel). […] The cofactor activity of wild-type NPAC was readily detected under the same conditions. […] Importantly, the demethylation of nucleosomal H3K4me2 was much more efficient in the presence of wild-type NPAC under same conditions (comparing lane 3 verse 4, and 8 verse 9). It is noted that no obvious cofactor effect of F217A peptide or linker regions was detected in nucleosome and peptide demethylation assays (FIG. 6E and data not shown). FIG. 12F depicts Coomassie staining of NPAC proteins used in histone demethylase assays. FIG. 12F discloses “His6” as SEQ ID NO: 75.
Histone peptides are purchased from Millipore, or custom synthesized. The purity of all peptides are >95% as determined by HPLC and mass spectrometry. In vitro histone demethylase activity assays were performed as described (Shi et al., 2004). Briefly, purified LSD2 and NPAC derived peptides or proteins were incubated with 50 μM H3K4me2 peptides (residues 1-21) in 50 mM Tris-HCl, pH 8.5, 50 mM KCl, 5 mM MgCl2, 5% glycerol at 37° C. for 30 min. The products were desalted through a C18 Ziptip (Millipore) and analyzed on a MALDI-TOF micro MX mass spectrometer (ABI 4700, Applied Biosystems). The laser intensity was kept constant for all of the samples. All MS data were processed using Data Explorer 4.5 (Applied Biosystems). […]

LSD1 = LSD1 (Homo sapiens, UniProt O60341); assay: LSD1-mediated nucleosome demethylation assay; settings: 2 μg LSD1 with 5 μg cofactor protein
Experimental: FIG. 7A depicts the determination of the threshold dosage of purified LSD2 required for nucleosomal H3K4 demethylation. 2 μg of nucleosomes purified from HeLa were incubated with various amount of His-LSD2 proteins for 2 hours at 30° C. The demethylation reactions were analyzed by immunoblotting using indicated antibodies. […] 2 μg LSD1 in combination with 5 μg purified NPAC or CoREST protein was used for histone demethylase assays. […] Transfected cells are marked by arrows; cells shown significant reduction of H3K4me1 are marked by dotted circles. […] In contrast, coexpression of LSD2 and NPAC induces obvious global decrease of H3K4me1. […] FIG. 7D depicts immunofluorescence analyses of H3K9me2 demethylation in cells coexpressing LSD2 and full-length NPAC.

His-LSD2 = target: T2, His-LSD2 (Homo sapiens, UniProt Q8NB78); assay: Nucleosome demethylation assay (NPAC cofactor activity for LSD2, immunoblot)
T2 construct: typically 0.5 μg full-length His-LSD2; made in house; host or cells: Sf9 insect cells
T2 sequence (Q8NB78 1-822): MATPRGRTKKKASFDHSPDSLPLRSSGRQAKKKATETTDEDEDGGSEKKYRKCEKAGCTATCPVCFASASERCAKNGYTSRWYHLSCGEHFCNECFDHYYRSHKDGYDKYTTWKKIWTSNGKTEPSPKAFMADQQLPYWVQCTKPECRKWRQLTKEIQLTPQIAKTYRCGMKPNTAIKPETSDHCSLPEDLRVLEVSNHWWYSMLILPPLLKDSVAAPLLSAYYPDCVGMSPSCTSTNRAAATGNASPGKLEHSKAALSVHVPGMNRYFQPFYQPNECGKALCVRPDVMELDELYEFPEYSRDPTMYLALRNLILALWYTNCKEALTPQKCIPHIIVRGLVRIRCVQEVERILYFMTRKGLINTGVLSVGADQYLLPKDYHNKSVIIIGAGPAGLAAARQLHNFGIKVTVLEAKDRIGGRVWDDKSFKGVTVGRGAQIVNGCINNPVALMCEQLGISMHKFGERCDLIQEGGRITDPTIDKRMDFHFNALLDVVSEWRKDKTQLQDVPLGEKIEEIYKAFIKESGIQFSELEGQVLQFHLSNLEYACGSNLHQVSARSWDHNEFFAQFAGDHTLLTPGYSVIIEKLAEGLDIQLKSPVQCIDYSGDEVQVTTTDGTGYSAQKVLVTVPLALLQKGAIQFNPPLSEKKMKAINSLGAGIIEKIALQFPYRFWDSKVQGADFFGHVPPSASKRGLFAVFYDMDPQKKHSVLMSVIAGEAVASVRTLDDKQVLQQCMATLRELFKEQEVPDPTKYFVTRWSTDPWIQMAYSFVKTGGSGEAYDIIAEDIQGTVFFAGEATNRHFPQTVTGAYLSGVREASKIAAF
Experimental: For nucleosome demethylation assays, typically 0.5 μg full-length His-LSD2, 1 μg NPAC protein or peptides, and 2 μg nucleosomes purified from HeLa were used, and demethylation efficiency was analyzed by SDS-PAGE electrophoresis and immunoblot using methylation specific anti-histone H3 antibodies as previously described (Shi et al. 2004).

LSD2 [2] = target: T3, LSD2 (Homo sapiens, UniProt Q8NB78); assay: H3K4me2 peptide demethylation assay (MALDI-TOF); parameters: 0.15 μM or 1.2 μM purified LSD2 (residues 51-822); His6 (cleaved yes); made in house; host or cells: Sf9 insect cells (baculovirus); settings: longer H3K4me2 peptide residues 1-44
T3 sequence (Q8NB78 1-822): T2 sequence (Q8NB78 1-822)
Experimental: FIGS. 12A-12F depict analysis of LSD2 demethylation activity and mutational analysis. […] Demethylation products were analyzed by MALDI-TOF mass spectrometry. 0.15 μM LSD2 can efficiently demethylate the longer H3K4me2 peptide (1-21), but has no detectable activity on the shorter histone peptide (1-15), demethylation of which requires high concentration (1.2 μM) of LSD2. […] It indicates the importance of histone residue 16-21 to LSD2 enzymatic activity and NPAC cofactor activity, supporting our model that NPAC assists enzyme-substrate interactions by creating a new binding site for H3 L20 in the LSD2-NPAC complex. FIG. 12C depicts LSD2 demethylation and NPAC cofactor activity on longer H3K4me2 peptide (1-44). […] The cofactor activity of wild-type NPAC was readily detected under the same conditions. […] It is noted that no obvious cofactor effect of F217A peptide or linker regions was detected in nucleosome and peptide demethylation assays (FIG. 6E and data not shown). […]
Histone peptides are purchased from Millipore, or custom synthesized. The purity of all peptides are >95% as determined by HPLC and mass spectrometry. […] The products were desalted through a C18 Ziptip (Millipore) and analyzed on a MALDI-TOF micro MX mass spectrometer (ABI 4700, Applied Biosystems). […]

| Molecule | Cofactor activity: stimulation of LSD2 demethylation of H3K4me2 peptide (LSD2 [1]) | Stimulation of LSD1 nucleosome demethylation (LSD1) | Cofactor activity on nucleosomes when more NPAC and LSD2 proteins were used (His-LSD2; more NPAC and LSD2 than threshold assay (FIG. 12E)) | Cofactor activity: stimulation of LSD2 demethylation of nucleosomal H3K4me2 (His-LSD2; threshold dosage of His-LSD2, nucleosomes purified from HeLa) | Cofactor activity: stimulation of LSD2 demethylation of H3K4me2 peptide (LSD2 [2]) |
| --- | --- | --- | --- | --- | --- |
| B1 | strong cofactor activity for LSD2 | failed to stimulate LSD1 demethylation of nucleosomes |  |  |  |
| B2 |  |  | residual stimulatory activity | didn't detect cofactor activity | very weak or undetectable |
